According to patent publication US20260209386A1 (MYTHIC THERAPEUTICS, published 2026):
Numbering of substitutions follows the chain as printed. One block for each binder: values may come before it.

Tests used:
[1] = target: T1, Human PTK7 Protein, His Tag (Acro Biosystems) (human, UniProt Q13308 31-704); assay: BLI, antibody on anti-human Fc sensor, 50 nM PTK7 at pH 7.4, dissociation at pH 7.4 or 5.4; 2 = substantially similar binding relative to parent
T1 construct: Bought recombinant protein; also called CCK4; tyrosine-protein kinase-like 7; not shown: His tag
T1 sequence: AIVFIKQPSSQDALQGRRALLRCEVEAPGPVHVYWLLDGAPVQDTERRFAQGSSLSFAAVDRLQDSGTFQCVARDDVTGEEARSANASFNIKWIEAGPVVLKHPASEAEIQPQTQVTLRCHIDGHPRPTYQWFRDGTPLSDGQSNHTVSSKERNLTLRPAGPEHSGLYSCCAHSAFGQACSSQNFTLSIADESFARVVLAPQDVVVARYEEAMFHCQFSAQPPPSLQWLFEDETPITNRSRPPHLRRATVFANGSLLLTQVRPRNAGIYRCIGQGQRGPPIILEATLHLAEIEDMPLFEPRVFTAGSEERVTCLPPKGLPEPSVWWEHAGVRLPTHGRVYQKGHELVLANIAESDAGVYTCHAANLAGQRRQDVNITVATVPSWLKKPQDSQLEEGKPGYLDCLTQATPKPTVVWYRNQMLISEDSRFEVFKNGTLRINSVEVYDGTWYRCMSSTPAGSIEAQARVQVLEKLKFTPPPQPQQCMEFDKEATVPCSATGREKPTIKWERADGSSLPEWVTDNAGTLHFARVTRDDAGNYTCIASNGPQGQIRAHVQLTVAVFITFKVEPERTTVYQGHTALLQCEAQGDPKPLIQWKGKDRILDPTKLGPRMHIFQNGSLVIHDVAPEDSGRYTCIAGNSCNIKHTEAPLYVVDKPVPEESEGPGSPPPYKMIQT

[2] = target: T2, Human PTK7 Protein, His Tag, Acro Biosystems (human, UniProt Q13308 31-704); assay: BLI (Octet), antibody on anti-human Fc sensor, 50 nM PTK7 at pH 7.4, dissociation at pH 7.4 or 5.4; 2 = substantially similar binding relative to parent
T2 construct: Bought recombinant protein; also called CCK4; not shown: His tag
T2 sequence: T1 sequence

- binding result [1]: binds
B1: MYT11377 (antibody, V domains shown)
VH: EVQLVESGGGLVQPGGSLRLSCTASGIDLSNYAVIWVRQAPGKGLEWVGIIYTYDTTYYANWAKGRFTISRDTSKNTVYLQMNSLRAEDTAVYFCARSFSDISDLIKHWGQGTLVTVSS
VL: EIVMTQSPSTLSASVGDRVIITCQASQSLYNNKDLAWYQQKPGKAPKLLIYEASKLASGVPSRFSGSGSGAEFTLTISSLQPDDFATYYCLGEFSCGSGDCLAFGQGTKLTVL
notes: MYT9797 HC variant; captured via anti-human Fc

- binding result [1]: binds
B2: MYT11402 (antibody, V domains shown)
VH: B1 VH with H108L
VL: B1 VL with S58H
notes: MYT9797 LC variant; captured via anti-human Fc

- binding result [1]: binds
B3: MYT11399 (antibody, V domains shown)
VH: B1 VH with H108L
VL: B1 VL with K55H
notes: as for B2

- binding result [1]: binds
B4: MYT11408 (antibody, V domains shown)
VH: B1 VH with H108L
VL: B1 VL with G97H
notes: as for B2

- binding result [1]: binds
B5: MYT11400 (antibody, V domains shown)
VH: B1 VH with H108L
VL: B1 VL with L56H
notes: as for B2

- binding result [1]: binds
B6: MYT11391 (antibody, V domains shown)
VH: B1 VH with H108L
VL: B1 VL with N32H
notes: as for B2

- binding result [1]: binds
B7: MYT11419 (antibody, V domains shown)
VH: B1 VH with H108L
VL: B1 VL with E93A
notes: MYT9797 LC alanine variant; captured via anti-human Fc

- binding result [1]: binds
B8: MYT11401 (antibody, V domains shown)
VH: B1 VH with H108L
VL: B1 VL with A57H
notes: as for B2

- binding result [1]: binds
B9: MYT11420 (antibody, V domains shown)
VH: B1 VH with H108L
VL: B1 VL with D100A
notes: as for B7

- binding result [1]: binds
B10: MYT11383 (antibody, V domains shown)
VH: B1 VH with H108L
VL: B1 VL with Q24H
notes: as for B2

- binding result [1]: binds
B11: MYT11413 (antibody, V domains shown)
VH: B1 VH with H108L
VL: B1 VL with A103H
notes: as for B2

- binding result [1]: binds
B12: MYT11379 (antibody, V domains shown)
VH: B1 VH with D28A, H108L
VL: B1 VL
notes: MYT9797 HC alanine variant; captured via anti-human Fc

- binding result [1]: binds
B13: MYT11385 (antibody, V domains shown)
VH: B1 VH with H108L
VL: B1 VL with S26H
notes: as for B2

- binding result [1]: binds
B14: MYT11387 (antibody, V domains shown)
VH: B1 VH with H108L
VL: B1 VL with S28H
notes: as for B2

- binding result [1]: binds
B15: MYT11386 (antibody, V domains shown)
VH: B1 VH with H108L
VL: B1 VL with Q27H
notes: as for B2

- binding result [1]: binds
B16: MYT11414 (antibody, V domains shown)
VH: B1 VH with H108L
VL: B1 VL with T111E, V112I, L113K
notes: captured via anti-human Fc

- binding result [1]: binds
B17: MYT11403 (antibody, V domains shown)
VH: B1 VH with H108L
VL: B1 VL with L91H
notes: as for B2

- binding result [2]: binds
B18: MYT10885 (antibody, V domains shown)
VH: EVQLVESGGGLVQPGGSLRLSCTASHFSLSNYVMNWVRQAPGKGLEWVGIIDSSGSTYYASWAKGRFTISRDTSKNTVYLQMNSLRAEDTAVYFCARGLYLWGQGTLVTVSS
VL: EIVMTQSPSTLSASVGDRVIITCQSSQSVYNNNLLAWYQQKPGKAPKLLIYYTSNLASGVPSRFSGSGSGAEFTLTISSLQPDDFATYYCQGGYNGNIYAFGQGTKLTVL
notes: MYT9345 variant, His at VH pos 26 (H1 01)

- binding result [2]: binds
B19: MYT10901 (antibody, V domains shown)
VH: B18 VH with H26G, S56H
VL: B18 VL
notes: MYT9345 variant, His at VH pos 56 (H2 07)

- binding result [2]: binds
B20: MYT10910 (antibody, V domains shown)
VH: B18 VH with H26G, G65H
VL: B18 VL
notes: MYT9345 variant, His at VH pos 65 (H2 16)

- binding result [2]: binds
B21: MYT10907 (antibody, V domains shown)
VH: B18 VH with H26G, W62H
VL: B18 VL
notes: MYT9345 variant, His at VH pos 62 (H2 13)

- binding result [2]: binds
B22: MYT10890 (antibody, V domains shown)
VH: B18 VH with H26G, N31H
VL: B18 VL
notes: MYT9345 variant, His at VH pos 31 (H1 06)

- binding result [2]: binds
B23: MYT10915 (antibody, V domains shown)
VH: B18 VH with H26G, Y100H
VL: B18 VL
notes: MYT9345 variant, His at VH pos 100 (H3 05)

- binding result [2]: binds
B24: MYT10904 (antibody, V domains shown)
VH: B18 VH with H26G, Y59H
VL: B18 VL
notes: MYT9345 variant, His at VH pos 59 (H2 10)

- binding result [2]: binds
B25: MYT10886 (antibody, V domains shown)
VH: B18 VH with H26G, F27H
VL: B18 VL
notes: MYT9345 variant, His at VH pos 27 (H1 02)

- binding result [2]: binds
B26: MYT10909 (antibody, V domains shown)
VH: B18 VH with H26G, K64H
VL: B18 VL
notes: MYT9345 variant, His at VH pos 64 (H2 15)

- binding result [2]: binds
B27: MYT10906 (antibody, V domains shown)
VH: B18 VH with H26G, S61H
VL: B18 VL
notes: MYT9345 variant, His at VH pos 61 (H2 12)

- binding result [2]: binds
B28: MYT10908 (antibody, V domains shown)
VH: B18 VH with H26G, A63H
VL: B18 VL
notes: MYT9345 variant, His at VH pos 63 (H2 14)

- binding result [2]: binds
B29: MYT10912 (antibody, V domains shown)
VH: B18 VH with H26G, R97H
VL: B18 VL
notes: MYT9345 variant, His at VH pos 97 (H3 02)

- binding result [2]: binds
B30: MYT10923 (antibody, V domains shown)
VH: B18 VH with H26G
VL: B18 VL with S28H
notes: MYT9345 variant, His at VL pos 28 (L1 05)

- binding result [2]: binds
B31: MYT10922 (antibody, V domains shown)
VH: B18 VH with H26G
VL: B18 VL with Q27H
notes: MYT9345 variant, His at VL pos 27 (L1 04)

- binding result [2]: binds
B32: MYT10921 (antibody, V domains shown)
VH: B18 VH with H26G
VL: B18 VL with S26H
notes: MYT9345 variant, His at VL pos 26 (L1 03)

- binding result [2]: binds
B33: MYT10893 (antibody, V domains shown)
VH: B18 VH with H26G, M34H
VL: B18 VL
notes: MYT9345 variant, His at VH pos 34 (H1 09)

- binding result [2]: binds
B34: MYT10919 (antibody, V domains shown)
VH: B18 VH with H26G
VL: B18 VL with Q24H
notes: MYT9345 variant, His at VL pos 24 (L1 01)

- binding result [2]: binds
B35: MYT10900 (antibody, V domains shown)
VH: B18 VH with H26G, G55H
VL: B18 VL
notes: MYT9345 variant, His at VH pos 55 (H2 06)

- binding result [2]: binds
B36: MYT10902 (antibody, V domains shown)
VH: B18 VH with H26G, T57H
VL: B18 VL
notes: MYT9345 variant, His at VH pos 57 (H2 08)

- binding result [2]: binds
B37: MYT10894 (antibody, V domains shown)
VH: B18 VH with H26G, N35H
VL: B18 VL
notes: MYT9345 variant, His at VH pos 35 (H1 10)

- binding result [2]: binds
B38: MYT10914 (antibody, V domains shown)
VH: B18 VH with H26G, L99H
VL: B18 VL
notes: MYT9345 variant, His at VH pos 99 (H3 04)

- binding result [2]: binds
B39: MYT10887 (antibody, V domains shown)
VH: B18 VH with H26G, S28H
VL: B18 VL
notes: MYT9345 variant, His at VH pos 28 (H1 03)
